Results published in paper PMC3582359 (Molecular cell, 2012).

Tests used:
[1] = biological target: GFP-250, a chimera of GFP with the cytosolic protein p115; assay: co-IP
[2] = biological target: recombinant GRP78 (19-654) Cys420 to Ala mutant (human, UniProt P11021 19-654, Cys420 (Cys to Ala)); assay: cross-linking
[3] = biological target: recombinant GRP78 (19-654) Cys41 to Ala mutant (human, UniProt P11021 19-654, Cys41 (Cys to Ala)); assay: cross-linking

Sequence of GRP78 (glucose-regulated protein 78), endogenous in mouse embryonic fibroblasts (P20029 20-655): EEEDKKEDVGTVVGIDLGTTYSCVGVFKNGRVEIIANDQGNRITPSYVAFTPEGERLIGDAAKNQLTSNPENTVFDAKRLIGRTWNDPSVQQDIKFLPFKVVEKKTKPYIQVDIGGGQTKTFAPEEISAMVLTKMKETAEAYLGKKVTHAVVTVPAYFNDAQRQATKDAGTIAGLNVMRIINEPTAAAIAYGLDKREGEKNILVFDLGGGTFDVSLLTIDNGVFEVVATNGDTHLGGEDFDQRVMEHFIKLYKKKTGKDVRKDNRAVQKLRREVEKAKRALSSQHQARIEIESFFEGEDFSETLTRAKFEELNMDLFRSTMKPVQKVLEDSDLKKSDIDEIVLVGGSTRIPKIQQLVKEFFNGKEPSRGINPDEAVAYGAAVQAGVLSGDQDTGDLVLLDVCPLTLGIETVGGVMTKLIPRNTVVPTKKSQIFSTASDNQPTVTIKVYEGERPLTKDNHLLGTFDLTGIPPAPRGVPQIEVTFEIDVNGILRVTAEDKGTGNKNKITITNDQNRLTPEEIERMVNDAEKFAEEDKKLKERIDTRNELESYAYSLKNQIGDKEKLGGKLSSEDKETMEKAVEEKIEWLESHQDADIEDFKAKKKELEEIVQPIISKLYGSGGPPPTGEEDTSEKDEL

fold more GFP-250 interacting with GRP78 in WT MEFs than in NPGPx-/- MEFs [1] [fold] | binding result [2] | binding result [3] | Molecule
3 | – | – | GRP78 (glucose-regulated protein 78), endogenous in mouse embryonic fibroblasts (from UniProt P20029 20-655) (natural protein)
– | binds | binds | oxidized recombinant NPGPx (19-187) (natural protein, human, UniProt Q96SL4 19-187, looked up, single disulfide bond between Cys57 and Cys86) AQQEQDFYDFKAVNIRGKLVSLEKYRGSVSLVVNVASECGFTDQHYRALQQLQRDLGPHHFNVLAFPCNQFGQQEPDSNKEIESFARRTYSVSFPMFSKIAVTGTGAHPAFKYLAQTSGKEPTWNFWKYLVAPDGKVVGAWDPTVSVEEVRPQITALVRKLILLKREDL
